Measured values as given in the RNAGym collection of RNA variant scans (doi:10.7554/elife.90254).

B1: LINE1-full (parent)
chain: UACGUAGGUGGUUUUCCCCUGAUAGUGCUAAGGGGGCCUGGAAGUUUGGACUGGGCAGAGCUCAACACAGCGUGGCAAAGUGGCUGUGGCUAGACUGCCUCUCUGGAUUCCUCGUCACUCAGCAGGGCAUCUCUGAGAGAAAUGCC

Variants of: B1
Experiment: self-cleavage, relative activity (ratio to wild type); higher = more cleavage; in vitro, sequencing; the parent is a self-cleaving ribozyme

Variant | self-cleavage
A2U U132C | 1.09
A2U U143C | 1.28
C3A | 0.69
C3A A77G | 1.17
C3A A78G | 0.64
C3A A121G | 0.53
C3A A140U | 0.9
C3A A142G | 0.82
C3A G55C | 0.07
C3A G70A | 0.08
C3A G106A | 0.57
C3A G122A | 1.51
C3A U13A | 0.79
C3A U45G | 0.45
C3A U52G | 1.31
C3A U73A | 0.64
C3A U87A | 0.1
C3A U104A | 0.7
C3A U112C | 1.48
C3A U134C | 0.92
C3G | 1.34
C3G A30U | 0.91
C3G A57U | 0
C3G U132A | 0.24

Variant | self-cleavage
C3U | 0.83
C3U A6U | 0.2
C3U A22G | 0.95
C3U A22U | 0.99
C3U A30G | 1.75
C3U A42G | 1.22
C3U A43G | 0.95
C3U A50U | 0.58
C3U A59G | 0.1
C3U A65G | 0.17
C3U A67C | 0.12
C3U A67U | 0.15
C3U A69U | 0.13
C3U A78G | 0.37
C3U A94G | 0.54
C3U A107U | 1.17
C3U A121U | 1.41
C3U A136G | 1.08
C3U C16U | 0.76
C3U C51G | 1.31
C3U C111U | 0.65
C3U C113A | 1.15
C3U G7C | 0
C3U G41A | 2.76

Variant | self-cleavage
C3U G58U | 0
C3U G60U | 0.07
C3U G93A | 0
C3U U5C | 1.16
C3U U9C | 1.53
C3U U14C | 0.81
C3U U20C | 0.44
C3U U29A | 1.07
C3U U46C | 0.92
C3U U47A | 0.67
C3U U52G | 1.17
C3U U62C | 0.15
C3U U81C | 0.79
C3U U85A | 0.28
C3U U87G | 0.32
C3U U96A | 0.07
C3U U100A | 0.68
C3U U108C | 1.26
C3U U109A | 0.93
C3U U115A | 0.72
C3U U115C | 1.03
C3U U119C | 1.14
C3U U134C | 1.05
C3U U143A | 0.41

Variant | self-cleavage
C3U U143G | 0
G4A A24G | 0.75
G4A A43G | 0.67
G4A A65G | 0
G4A A77G | 1.68
G4A A79G | 1.3
G4A A79U | 0.64
G4A A94U | 0.27
G4A A107U | 0.2
G4A A121C | 1.72
G4A A121U | 1.22
G4A A124U | 0.53
G4A A136G | 0.86
G4A A140C | 0.27
G4A A140G | 0.76
G4A A141G | 0.89
G4A C98A | 0.19
G4A C133A | 0.79
G4A G11A | 0.58
G4A G21A | 0.76
G4A G40A | 1.24
G4A G54A | 0.6
G4A G139A | 1.21
G4A U12G | 1.23

Variant | self-cleavage
G4A U14A | 0.75
G4A U14C | 0.59
G4A U20G | 0.62
G4A U23C | 1.11
G4A U26A | 0.82
G4A U47A | 0.52
G4A U52C | 0.88
G4A U62G | 0
G4A U73A | 0.97
G4A U73C | 1.68
G4A U81A | 1.34
G4A U85C | 0.13
G4A U87C | 0.1
G4A U87G | 0.07
G4A U96C | 0.15
G4A U104C | 0.83
G4A U108C | 1.04
G4A U115A | 1.14
G4A U115C | 0.9
G4A U130C | 1.38
G4C A64G | 1.25
G4C A77G | 2.9
G4C A78G | 0.81
G4C A79G | 0.29

Variant | self-cleavage
G4C A107U | 1.49
G4C A124G | 0.48
G4C A141G | 0.5
G4C U96A | 0.12
G4C U112A | 0.75
G4C U115C | 2.15
G4U A30G | 1.11
G4U A77G | 2.68
G4U A78G | 1.05
G4U A121U | 1.23
G4U A136G | 1.91
G4U A138U | 1.19
G4U U5C | 0.79
G4U U39A | 1.95
G4U U52A | 1.01
G4U U81C | 0.2
G4U U109C | 1.07
G4U U119C | 1.31
G4U U134A | 1.07
U5A | 0.95
U5A A6G | 2.12
U5A A6U | 1.23
U5A A43G | 0.76
U5A A57G | 0.83

Variant | self-cleavage
U5A A57U | 0.34
U5A A64C | 0.19
U5A A65C | 0.08
U5A A67G | 0.7
U5A A69G | 0.45
U5A A69U | 0.09
U5A A77G | 2.07
U5A A94G | 0.44
U5A A94U | 0.32
U5A A129G | 0.79
U5A A136G | 1.14
U5A A136U | 1.11
U5A A138C | 0.98
U5A A140U | 1.09
U5A A142G | 0.89
U5A C38G | 0.71
U5A C95U | 0.14
U5A C128U | 1.06
U5A G36A | 1.19
U5A G49A | 0.5
U5A G53A | 0.79
U5A G106A | 1.14
U5A U9C | 0.81
